Measurements as given in article PMC10267116, “Structural and functional analysis of a plant nucleolar RNA chaperone-like protein”.

Assays:
NURC1-FL [1] = molecular target: T1, NURC1-FL (Arabidopsis thaliana, UniProt Q9LZ65 1-222); assay: MST; conditions: MST: 10 nM labelled RNA, 20 mM Tris-HCl pH 8.0, 150 mM NaCl, 0.1 mg/ml BSA, 1 mM DTT, 0.1% Tween-20, room temperature, 5 min
T1 sequence: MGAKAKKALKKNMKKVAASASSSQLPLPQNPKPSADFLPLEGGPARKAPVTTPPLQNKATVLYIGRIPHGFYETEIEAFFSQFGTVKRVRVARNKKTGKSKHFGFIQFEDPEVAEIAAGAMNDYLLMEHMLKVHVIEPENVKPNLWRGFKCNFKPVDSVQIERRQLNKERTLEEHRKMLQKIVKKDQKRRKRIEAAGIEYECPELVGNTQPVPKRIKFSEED

NURC1 1-160 [2] = molecular target: T2, NURC1 1-160 (Arabidopsis thaliana, UniProt Q9LZ65 1-160); assay: MST; conditions: MST: 10 nM labelled RNA, 20 mM Tris-HCl pH 8.0, 150 mM NaCl, 0.1 mg/ml BSA, 1 mM DTT, 0.1% Tween-20, room temperature, 5 min
T2 sequence: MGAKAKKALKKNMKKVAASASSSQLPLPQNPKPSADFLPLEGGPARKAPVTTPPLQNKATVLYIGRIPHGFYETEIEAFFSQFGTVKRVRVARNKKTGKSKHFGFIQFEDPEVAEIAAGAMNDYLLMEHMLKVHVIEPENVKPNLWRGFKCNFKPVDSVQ

[3] = system: NURC1 1-140 (Arabidopsis thaliana); assay: MST; conditions: MST: 10 nM labelled RNA, 20 mM Tris-HCl pH 8.0, 150 mM NaCl, 0.1 mg/ml BSA, 1 mM DTT, 0.1% Tween-20, room temperature, 5 min
NURC1-FL [4] = molecular target: T1, NURC1-FL; assay: MST; Kd only in figure/Table S5; MST: 10 nM labelled RNA, 20 mM Tris-HCl pH 8.0, 150 mM NaCl, 0.1 mg/ml BSA, 1 mM DTT, 0.1% Tween-20, room temperature, 5 min; conditions: protein: recombinant; tags: N-terminal 6xHis (pET-28a, NdeI/XhoI) removed with thrombin; label: Cy5-UTP incorporated (Cy5-UTP/UTP 1:15)
NURC1 1-160 [5] = molecular target: T2, NURC1 1-160; assay: as above; conditions: protein: recombinant; tags: 6xHis (pET-28a) removed with thrombin; label: Cy5-UTP incorporated (Cy5-UTP/UTP 1:15)

## ITS2 FL
NURC1-FL [1]
  Kd: 228 nM
NURC1 1-160 [2]
  Kd: 116 nM
[3]
  Kd: 938 nM

B1: ITS2 82-162 (stem III) (structured_RNA)
RNA: GGAGCCAAGGACGCCUGGAGCGUACCGACAUGCGGUGGUGAACUUGAUCCAUUACAUUUUAUCGGUCGCUCUUGUCCGGAA
NURC1-FL [4]
  binding result: binds
NURC1 1-160 [5]
  binding result: binds

B2: ITS2 1-79 (stem I and II) (structured_RNA)
RNA: GGAUCGUCGUCCCUCACCAUCCUUUGCUGAUGCGGGACGGAAGCUGGUCUCCCGUGUGUUACCGCACGCGUUGGCCUAAUU
NURC1-FL [4]
  binding result: binds
NURC1 1-160 [5]
  binding result: binds
